According to the Immune Epitope Database (IEDB):

Tests used:
Details in all cases: source organism: Yersinia pestis Nepal516
HLA-C*14:02 = experiment: IEDB peptide-MHC binding, purified MHC/direct/fluorescence; filed as Kd, often an IC50 or EC50 that approximates it; ≥ and ≤ were set here for values at or beyond the usual limits of such assays
HLA-C*15:02 = experiment: as above
HLA-B*58:01 = experiment: IEDB peptide-MHC binding, purified MHC/competitive/fluorescence; filed as Kd, often an IC50 or EC50 that approximates it; ≥ and ≤ were set here for values at or beyond the usual limits of such assays
HLA-A*02:01 = experiment: as above
HLA-A*26:01 = experiment: as above
HLA-C*06:02 = experiment: as above
HLA-A*32:15 = experiment: as above
HLA-B*40:13 = experiment: as above
HLA-B*27:20 = experiment: as above
HLA-B*15:01 = experiment: as above
HLA-B*15:42 = experiment: as above
HLA-B*83:01 = experiment: as above
HLA-B*45:06 = experiment: as above

YMYDFILRF was tested, and the Kd (HLA-C*14:02) was 4.11 µM, the Kd (HLA-C*15:02) was ≥ 20 µM and the Kd (HLA-B*58:01) was ≥ 20 µM. The Kd (HLA-A*02:01) was 0.0159 µM, the Kd (HLA-A*26:01) was ≥ 20 µM and the Kd (HLA-C*06:02) was 1.18 µM. The Kd (HLA-A*32:15) was 0.908 µM, the Kd (HLA-B*40:13) was 0.159 µM and the Kd (HLA-B*27:20) was 0.0633 µM. The Kd (HLA-B*15:01) was 2.33 µM, the Kd (HLA-B*15:42) was ≥ 5 µM and the Kd (HLA-B*83:01) was ≥ 5 µM. For the same sequence, the Kd (HLA-B*45:06) was ≥ 5 µM.
